# Experimental data as given in paper PMC9239388 (Journal of Inflammation Research, 2022).
# B1: human anionic trypsin (TRY2), enterokinase activated, cleaved at the Arg122-Val123 bond (enzyme)
# chain 1: IVGGYICEENSVPYQVSLNSGYHFCGGSLISEQWVVSAGHCYKSRIQVRLGEHNIEVLEGNEQFINAAKIIRHPKYNSRTLDNDILLIKLSSPAVINSR
# chain 2: VSAISLPTAPPAAGTESLISGWGNTLSSGADYPDELQCLDAPVLSQAECEASYPGKITNNMFCVGFLEGGKDSCQGDSGGPVVSNGELQGIVSWGYGCAQKNRPGVYTKVYNYVDWIKDTIAANS
# Biological target: the molecule itself
# Experiment: crystal structure
protein,measurement,value
B1,binding result,binds
